The values below come from doi:10.1101/2022.08.19.504472.

Assay [1] addresses FITC-labeled RLAAK peptide. Kind of assay: fluorescence polarisation. A general note: Polarisation of emitted light reports the rotation of a fluorescent probe.
The target in assay [2] is FITC-labeled RDAAK peptide. Kind of assay: fluorescence polarisation.

The term Kd denotes the concentration at which binding is half-saturated. The low end stands for a tighter complex, the high end for a looser complex. Substance “His-MBP-OsPRT6-UBR 136H+161V double mutant (domain or fragment)” yielded a Kd in assay [1] of 709 µM.
In turn, “His-MBP-OsPRT6-UBR 161V mutant (domain or fragment)” registered a Kd in assay [1] of 41.4 µM.
In turn, “His-MBP-OsPRT6-UBR 136H mutant (domain or fragment)” returned a Kd in assay [1] of 58.9 µM.
On to “His-MBP-OsPRT6-UBR wild type (domain or fragment)”, for which the figures for the Kd in assay [2] and in assay [1] were 137 µM and 25.8 µM, respectively.
